According to patent publication US7691567B2, “Methods and compositions relating to fortilin, an anti-apoptotic molecule, and modulators of fortilin” (Board of Regents, the University of Texas System, priority 2000, dated 2010):

Tests used:
MCL1 = type: cell-based
p53 = p53 (Homo sapiens, UniProt P04637); assay: Coimmunoprecipitation of fortilin and p53 from U2OS cell lysates; type: binding; design: endogenous in cells; host or cells: U2OS
Procedure: As in example 2, studies were initiated to determine whether p53 and Fortilin specifically interact in U2OS cells. Six million U2OS cells stably expressing either HA-fortilin or HA-only were suspended in lysis-binding-wash buffer (50 mM HEPES, pH7.5, 70 mM KCl, 0.5 mM ATP, 5 mM MgSO4, 1 mM DTT, 0.1% NP40, 2 mg/mL BSA, Aprotinin, PMSF, MG132 and protease inhibitor cocktail). Cells were then mechanically disrupted by nitrogen excavitation method. Cleared total cell lysates were incubated with […] anti-HA antibody (3F10, Roche), followed by the incubation with anti-mouse IgG conjugated to magnetic beads (Dynal USA) and extensive wash with lysis-binding-wash buffer.
Further experiments were conducted to determine in vivo immunoprecipitation of fortilin by p53. Twenty million U2OS cells were suspended in lysis-binding buffer (50 mM HEPES, pH7.5, 70 mM KCl, 0.5 mM ATP, 5 mM MgSO4, 1 mM DTT, 0.001% NP40, 2 mg/mL BSA, Aprotinin, PMSF, MG132 and protease inhibitor cocktail). Cells were then mechanically disrupted by nitrogen excavitation method. Cleared total cell lysates were divided equally into two eppendorf tubes. To the first tube, anti-p53 antibody (DO-1, […]) was added, while […] control monoclonal antibody was added to the second tube. After incubation, formed complexes were precipitated by goat anti-mouse IgG conjugated to magnetic beads (Dynal USA), followed by extensive wash. […]

FLAG-MCL1 = FLAG-MCL1 (Homo sapiens, UniProt Q07820); type: binding; settings: COS cell lysate, anti-HA immunoprecipitation
Chain of FLAG-MCL1 (Q07820 whole entry): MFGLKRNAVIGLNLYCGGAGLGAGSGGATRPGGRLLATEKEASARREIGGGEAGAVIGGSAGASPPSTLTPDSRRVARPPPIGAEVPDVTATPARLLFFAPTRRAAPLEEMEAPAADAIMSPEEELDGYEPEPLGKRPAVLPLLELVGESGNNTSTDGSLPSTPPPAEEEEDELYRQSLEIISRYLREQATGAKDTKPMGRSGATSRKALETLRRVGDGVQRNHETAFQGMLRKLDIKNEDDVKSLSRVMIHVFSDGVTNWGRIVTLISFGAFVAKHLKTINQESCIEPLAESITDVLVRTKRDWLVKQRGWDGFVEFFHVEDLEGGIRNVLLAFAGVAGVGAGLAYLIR

Chain of p53 (P04637 whole entry, species assumed): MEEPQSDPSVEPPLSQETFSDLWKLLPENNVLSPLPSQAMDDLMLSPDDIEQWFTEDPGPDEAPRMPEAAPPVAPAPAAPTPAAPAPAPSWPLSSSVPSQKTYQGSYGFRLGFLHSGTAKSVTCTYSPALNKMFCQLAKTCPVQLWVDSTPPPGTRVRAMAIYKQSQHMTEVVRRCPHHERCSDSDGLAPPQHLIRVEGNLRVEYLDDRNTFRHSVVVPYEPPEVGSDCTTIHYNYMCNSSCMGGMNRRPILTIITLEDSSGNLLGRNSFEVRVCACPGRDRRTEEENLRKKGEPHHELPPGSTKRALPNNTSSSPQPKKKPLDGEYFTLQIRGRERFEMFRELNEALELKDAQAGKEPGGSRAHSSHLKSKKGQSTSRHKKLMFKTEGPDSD

“Fortilin-HA: influenza hemagglutinin-tagged Fortilin” was tested, and the “intracellular localization of MCL1” value (MCL1) was “MCL1 was consistently localized in the nucleus just as it was in the cells transfected with empty vector”, the “co-precipitation of fortilin and p53 in vivo” value (p53) was “the presence of fortilin was necessary and sufficient for the co-precipitation of p53” and the “co-precipitation of FLAG-MCL1 in vivo” value (FLAG-MCL1) was “FLAG-MCL1 was co-precipitated only in the presence of immunoprecipitated Fortilin-HA”.
